Data as given in article PMC3813429.
pKd: −log10 of the molar value.

Molecular target: HaALP, membrane bound alkaline phosphatase of Helicoverpa armigera (Helicoverpa armigera (endogenous in larval midgut))
Assay: SPR

Substance | pKd | koff [s⁻¹] | kon [M⁻¹ s⁻¹]
Cry1Ac triple mutant (Q509A-N510A-R511A) (domain or fragment) | 6.58 | 0.00269 | 10200
Cry1Ac N510A (domain or fragment) | 7.23 | 0.00136 | 23200
Cry1Ac tetra mutant (Q509A-N510A-R511A.Y513A) (domain or fragment) | 5.62 | 0.000184 | 75
Cry1Ac Y513A (domain or fragment) | 6.65 | 0.00147 | 6610
Cry1Ac R511A (domain or fragment) | 7.49 | 0.00179 | 55800
Cry1Ac W545A (domain or fragment) | 5.15 | 0.00688 | 963
Cry1Ac Q509A (domain or fragment) | 7.53 | 0.00571 | 193000

Molecular target: HaALP, membrane bound alkaline phosphatase of Helicoverpa armigera (Helicoverpa armigera (endogenous in larval midgut))
Assay: not given

Substance | LC50, insect bioassay on H. armigera neonates (toxin on artificial diet surface, 5 days) [µg/mL]
Cry1Ac W545A (domain or fragment) | 34.1
